Columns and labels:
[1] = biological target: T1, 3-mercaptopropionic acid dioxygenase (Av3MDO) (Azotobacter vinelandii, UniProt C1DN94); assay: X-ray crystal structure ([…] Å); competitive inhibition by O2 electrode steady-state kinetics; type: biochemical
T1 construct: gene Avin_30970; His-tag removed by thrombin; N- and C-termini not modelled

[2] = biological target: Azotobacter vinelandii 3-mercaptopropionic acid dioxygenase (Azotobacter vinelandii); assay: crystal structure; crystal form A, space group P3(1), 12 monomers in the asymmetric unit; 100 mM MES pH 6, 30% poly(acrylic acid sodium salt) 5100, 10% ethanol, 50 mM MgCl2, 22 °C; complex with 3HPA and chloride
[3] = biological target: Azotobacter vinelandii 3-mercaptopropionic acid dioxygenase (Azotobacter vinelandii); assay: crystal structure; crystal form B, space group P6(1)22, four monomers in the asymmetric unit; HEPES pH 7, pentaerythritol propoxylate, sodium thiocyanate, 22 °C; thiocyanate bound at the iron

T1 sequence (C1DN94 entry or part of it): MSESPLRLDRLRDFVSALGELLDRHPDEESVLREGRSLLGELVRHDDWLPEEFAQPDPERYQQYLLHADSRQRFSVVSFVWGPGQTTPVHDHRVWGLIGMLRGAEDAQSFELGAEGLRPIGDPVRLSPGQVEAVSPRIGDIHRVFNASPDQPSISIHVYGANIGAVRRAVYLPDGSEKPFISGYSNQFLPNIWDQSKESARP

Compound | Ki [1] [µM] | stoichiometry N [2] | stoichiometry N [3]
O=C(O)CCO [3HPA, 3-hydroxypropionic acid] | 280 ± 26 |  | 
Azotobacter vinelandii 3-mercaptopropionic acid dioxygenase (enzyme) |  | 2 | 2
